This data set concerns the molecule itself. Put plainly: SEC; Superose 6 HR 10/30; 10 mM Hepes pH 8.0, 300 mM KCl, 10% glycerol, 1 mM 2-mercaptoethanol; 0.4 ml/min; calibrated with molecular-mass markers.

B1: C-terminal domain of the MutL homolog of Neisseria gonorrhoeae (NgoL-CTD), wild type (domain or fragment, UniProt Q5F8M6 458-658, looked up)
chain: IPSQSELPPLGFAIAQLLGIYILAQAEDSLLLIDMHAAAERVNYEKMKRQRQENGNLQSQHLLIPVTFAASHEECAALADHAETLAGFGLELSDMGGNTLAVRAAPVMLGKSDVVSLARDVLGELAQVGSSQTIASHENRILATMSCHGSIRAGRRLTLPEMNALLRDMENTPRSNQCNHGRPTWVKLTLKELDTLFLRGQ
notes: MutL homolog (NgoL) of Neisseria gonorrhoeae, C-terminal domain, residues 458-658; In the model, residues 463-654 (monomer A) and 464-656 (monomer B) are built; 587-591 are disordered; also called C-terminal domain of NgoL; source: selenomethionine-labelled form in E. coli B834
With B1, the “stoichiometry N” value worked out at 2.

Broadly, the stoichiometry N is a count of units in the complex or per binding partner.

Values taken from paper PMC2965676, “The C-Terminal Domain of the MutL Homolog from Neisseria gonorrhoeae Forms an Inverted Homodimer” (PLoS ONE, 2010).
